Earlier results on one substance are cited in patent US11358994B2, “Fatty acid modified human epidermal growth factor” (Saint Louis University, priority 2017, dated 2022).

For this series the following is noted: species not stated.

Turning to “hEGF: 6 kD protein made of 53 amino acids (SEQ ID NO: 1)”, the half-life in vivo was about 2 min.
